Assay results published in patent US20110123554A1 (BIOTEST, published 2011).
“And” between values parts separate entries of the source, which are not always exact repeats. Identical values can stand only once.

T1: CD138 on the cell surface (human, UniProt P18827 23-310)
T1 sequence (looked up): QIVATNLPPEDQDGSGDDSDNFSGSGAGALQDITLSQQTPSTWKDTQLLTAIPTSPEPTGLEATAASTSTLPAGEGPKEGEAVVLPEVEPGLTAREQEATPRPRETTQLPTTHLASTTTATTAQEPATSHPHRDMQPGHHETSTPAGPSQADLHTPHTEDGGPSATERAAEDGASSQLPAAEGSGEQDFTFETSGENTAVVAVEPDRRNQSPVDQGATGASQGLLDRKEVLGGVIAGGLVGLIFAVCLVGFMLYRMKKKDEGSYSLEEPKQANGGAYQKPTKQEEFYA

T2: Soluble CD138 antigen from U-266 cell culture supernatant, biotinylated (human, UniProt P18827 23-245, limits assumed, biotinylated on primary amino groups with EZ-Link Sulfo-NHS-LC-Biotin)
T2 construct: Captured on a streptavidin SENSOR CHIP SA for the BIACORE assay; Soluble (shed) form; also called bCD138; biotinylated CD138
T2 sequence (looked up): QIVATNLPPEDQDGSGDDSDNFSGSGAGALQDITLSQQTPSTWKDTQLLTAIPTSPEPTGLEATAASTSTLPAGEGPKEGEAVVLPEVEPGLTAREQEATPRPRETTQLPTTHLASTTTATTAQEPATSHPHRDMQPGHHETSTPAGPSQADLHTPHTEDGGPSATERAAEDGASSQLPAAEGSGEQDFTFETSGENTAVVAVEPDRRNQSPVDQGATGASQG

B1: nBT062-SPDB-DM4 (antibody, human IgG4, kappa, V domains shown)
VH: QVQLQQSGSELMMPGASVKISCKATGYTFSNYWIEWVKQRPGHGLEWIGEILPGTGRTIYNEKFKGKATFTADISSNTVQMQLSSLTSEDSAVYYCARRDYYGNFYYAMDYWGQGTSVTVSS
VL: DIQMTQSTSSLSASLGDRVTISCSASQGINNYLNWYQQKPDGTVELLIYYTSTLQSGVPSRFSGSGSGTDYSLTISNLEPEDIGTYYCQQYSKLPRTFGGGTKLEIKR
modifications: maytansinoid DM4 linked by disulfide bond through SPDB linker; residues carrying the drug not stated
B2: nBT062-SPP-DM1 (antibody, human IgG4, kappa, V domains shown)
VH: B1 VH
VL: B1 VL
modifications: maytansinoid DM1 linked through SPP linker; residues carrying the drug not stated
notes: an average of 3.5 DM1 per antibody is stated for nBT062-DM1 conjugates
B3: B-B4-SPP-DM1 (antibody, V domains shown)
VH: B1 VH
VL: DIQMTQSTSSLSASLGDRVTISCSASQGINNYLNWYQQKPDGTVELLIYYTSTLQSGVPSRFSGSGSGTDYSLTISNLEPEDIGTYYCQQYSKLPRTFGGGTKLEIK
modifications: maytansinoid DM1 linked through SPP linker; residues carrying the drug not stated
notes: Variable domains as for B-B4 (see its note)
B4: nBT062-SMCC-DM1 (antibody, human IgG4, kappa, V domains shown)
VH: B1 VH
VL: B1 VL
modifications: maytansinoid DM1 linked through non-cleavable SMCC linker; residues carrying the drug not stated
B5: nBT062 (antibody, human IgG4, kappa, V domains shown)
VH: B1 VH
VL: B1 VL
notes: also called cB-B4; chimeric B-B4

Columns and labels:
[1] = biological target: T1, CD138 on the cell surface; assay: cell-based or functional assay
[2] = biological target: T1, CD138 on the cell surface; assay: FACS on CD138+ OPM-2 cells, fluorescence-labelled secondary antibody, mean fluorescence against concentration
From the text: The cells were washed and CD138-bound antibody or conjugates were detected using a fluorescence-labeled secondary antibody in FACS analysis. The mean fluorescence measured in these experiments was plotted against the antibody concentration.

[3] = biological target: T2, Soluble CD138 antigen from U-266 cell …; assay: BIACORE C, biotinylated soluble CD138 on SA chip, conjugate as analyte; single experiment
[4] = biological target: T2, Soluble CD138 antigen from U-266 cell …; assay: BIACORE C, biotinylated soluble CD138 on SA chip, conjugate as analyte; mean of three experiments

Binder	EC50 (read off the curve) [2] [nM]	also measured
B1		Sensitivity IC50 (nM), cell line NCI-H929 (MM) [1]: 0.38 nM
B2	~1	
B3		Kd [3]: 2.6 nM and 2.7 nM; Kd [4]: 2.6 nM
B4	~1	
B5	~1	
